# Results as given in publication PMC2855648.
# Tests used:
# Assay in all cases: initial velocity, spectrophotometric DTP/DTNB thiol assay
# Format in all cases: biochemical, Escherichia coli
# [1] = system: CC(=O)SCCNC(=O)CCNC(=O)[C@H](O)C(C)(C)COP(=O)(O)OP(=O)(O)OC[C@H]1O[C@@H](n2cnc3c(N)ncnc32)[C@H](O)[C@@H]1OP(=O)(O)O; details: fixed saturating kanamycin B, optimum pH 5.6, room temperature
# [2] = system: NC[C@@H]1O[C@H](O[C@H]2[C@@H](O)[C@H](O[C@@H]3[C@@H](O)[C@H](N)C[C@H](N)[C@H]3O[C@H]3O[C@H](CN)[C@@H](O)[C@H](O)[C@H]3N)O[C@@H]2CO)[C@H](N)[C@@H](O)[C@@H]1O; details: fixed saturating AcCoA, optimum pH 5.6, room temperature
# [3] = system: NC[C@H]1O[C@H](O[C@H]2[C@H](O)[C@@H](O[C@H]3O[C@H](CO)[C@@H](O)[C@H](N)[C@H]3O)[C@H](N)C[C@@H]2N)[C@H](N)[C@@H](O)[C@@H]1O; details: fixed saturating AcCoA, optimum pH 5.6, room temperature
substance,measurement,setting,value
AAC(6′)-Ib-wt (Escherichia coli; R102W/Y179D),Km,[1],35 ± 2 µM
same,kcat,[1],2.32 ± 0.0667 s⁻¹
same,kcat/Km,[1],66700 M⁻¹ s⁻¹
same,Km,[2],20 ± 1 µM
same,kcat,[2],3.08 ± 0.05 s⁻¹
same,kcat/Km,[2],150000 M⁻¹ s⁻¹
same,Km,[3],0.27 ± 0.01 µM
same,kcat,[3],2.27 ± 0.05 s⁻¹
same,kcat/Km,[3],8.38e+06 M⁻¹ s⁻¹
